Laboratory results reported in paper doi:10.1101/156513 (bioRxiv, 2017).

T1: GST-ZPSG-1 (UniProt Q07157 417-806)
T1 sequence: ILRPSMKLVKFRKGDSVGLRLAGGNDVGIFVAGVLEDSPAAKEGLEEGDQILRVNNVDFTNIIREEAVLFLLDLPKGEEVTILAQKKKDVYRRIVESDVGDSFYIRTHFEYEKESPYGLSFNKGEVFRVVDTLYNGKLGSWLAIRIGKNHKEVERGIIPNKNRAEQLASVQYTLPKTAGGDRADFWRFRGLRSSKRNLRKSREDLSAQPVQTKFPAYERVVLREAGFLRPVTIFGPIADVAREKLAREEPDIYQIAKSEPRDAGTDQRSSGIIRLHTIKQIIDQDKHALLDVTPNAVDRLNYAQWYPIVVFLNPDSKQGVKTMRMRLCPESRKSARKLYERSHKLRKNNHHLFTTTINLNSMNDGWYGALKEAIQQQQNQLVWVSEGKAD


Target: T1, GST-ZPSG-1
Assay: supernatant depletion assay

Row | Binder | Kd [nM]
1 | HA-DbpA (natural protein) not shown | 100
2 | GFP-tagged C-terminal ZO-1 fragment (GFP-ZO-1-1619-1748) (domain or fragment) SAVEEDEDEDGHTVVATARGIFNSNGGVLSSIETGVSIIIPQGAIPEGVEQEIYFKVCRDNSILPPLDKEKGETLLSPLVMCGPHGLKFLKPVELRLPHCDPKTWQNKCLPGDPNYLVGANCVSVLIDHF | 66
